From patent US20240168030A1, “DIRECT FLUORESCENT GLYCAN LABELING” (BIO-TECHNE CORPORATION, priority 2019, published 2024)

Key:
Assay type in all cases: biochemical
ST3Gal1 = target: T1, ST3Gal1 (Homo sapiens, UniProt Q11201); test: Direct fluorescent glycan labeling (DFGL) with fluorophore-conjugated sialic acid by ST3Gal1; conditions: for Lower limit of detection of acceptor protein labeled by ST3Gal1: 0.2 nmol CMP-Cy5-SA, fluorescent imaging of SDS-PAGE
T1 construct: purchased R&D Systems (Bio-Techne, Minneapolis, MN)
T1 sequence (Q11201 1-340): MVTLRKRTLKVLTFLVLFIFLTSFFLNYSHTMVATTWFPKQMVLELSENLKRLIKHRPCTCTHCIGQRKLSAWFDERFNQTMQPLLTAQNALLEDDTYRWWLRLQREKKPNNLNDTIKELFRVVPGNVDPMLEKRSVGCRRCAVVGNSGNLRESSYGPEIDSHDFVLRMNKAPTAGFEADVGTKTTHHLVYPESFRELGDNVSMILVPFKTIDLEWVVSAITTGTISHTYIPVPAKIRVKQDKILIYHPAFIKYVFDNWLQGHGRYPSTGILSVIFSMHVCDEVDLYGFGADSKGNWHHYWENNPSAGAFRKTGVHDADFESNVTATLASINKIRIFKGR

ST6Gal1 = target: T2, ST6Gal1 (Homo sapiens, UniProt P15907); test: DFGL with fluorophore-conjugated sialic acid by ST6Gal1; conditions: for Lower limit of detection of acceptor protein labeled by ST6Gal1: 0.2 nmol CMP-Cy5-SA, fluorescent imaging of SDS-PAGE
T2 construct: purchased R&D Systems (Bio-Techne, Minneapolis, MN)
T2 sequence (P15907 1-406): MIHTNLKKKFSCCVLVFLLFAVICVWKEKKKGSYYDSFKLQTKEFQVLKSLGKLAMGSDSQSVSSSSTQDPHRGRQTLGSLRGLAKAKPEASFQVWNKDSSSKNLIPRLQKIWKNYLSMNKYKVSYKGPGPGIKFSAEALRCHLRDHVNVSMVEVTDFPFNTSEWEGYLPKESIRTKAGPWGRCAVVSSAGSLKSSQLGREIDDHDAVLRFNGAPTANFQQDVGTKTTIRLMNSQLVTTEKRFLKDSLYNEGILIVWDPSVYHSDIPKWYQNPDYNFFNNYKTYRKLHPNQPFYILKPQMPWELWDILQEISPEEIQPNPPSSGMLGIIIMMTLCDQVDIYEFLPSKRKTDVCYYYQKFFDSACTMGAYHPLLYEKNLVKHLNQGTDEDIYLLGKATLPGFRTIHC

[1] = test system: fetal bovine fetuin and asialofetuin; test: Labeling of fetuin and asialofetuin by sialyltransferases with CMP-f-SA; conditions: CMP-f-SA donors, FIG. 2
[2] = Enzymatic synthesis of Le^x and sLe^x by glycan gel electrophoresis, substrate G2
Protocol: FIG. 21A. Schematic view of the enzymatic steps for Le^X and sLe^X synthesis on the antibody glycan G0. The glycan short names follow that of FIG. 10. FIG. 21B Kinetic comparison of galactosylation on G0 by B4GalT1, sialyation on G2 by ST3Gal4 and ST6Gal1, and fucosylation on A2[3] by FUT7. The reaction time for B4GalT1 was 10 minutes. The reaction time for ST3Gal4, FUT7 and ST6Gal1 was 5 hours. In each case, the labeling enzyme was subject to a 3-fold serial dilution starting from 1 μg each of B4GalT1, FUT7 and ST6Gal1, and 3 μg ST3Gal4. FIG. 21C. […] Reaction time for both cases was 20 minutes. […] FIG. 21D. […] Reaction time for both cases was 20 minutes.
For a typical labeling reaction, 1 μg to 5 μg target protein was mixed with 0.2 nmol fluorophore-conjugated GDP-fucose and 0.2 μg of a fucosyltransferase in 30μL 25 mM Tris pH 7.5, 10 mM MnCl2. The mixture was incubated at 37° C. for 30 minutes. […] To release labeled glycans from a glycoprotein, the sample was first denatured by heating at 95° C. for two minutes in the presence of 0.5% SDS and 80 mM β-mercaptoethanol and then renatured with 1% Triton X-100, and finally treated with PNGase F at 10:1 mass ratio at 37° C. for 20 minutes. To release glycans from antibody, a sample was directly treated with Endo S at 10:1 mass ratio at 37° C. for 20 minutes. All samples were separated by sodium dodecyl sulfate—polyacrylamide gel electrophoresis (SDS-PAGE) at […]. For separating labeled glycoproteins and antibodies, 4-20% gradient SDS gel was used. For separating labeled free glycans, 15% or 17% gel was used. After separation, all gels were imaged using a FluorChem M imager (ProteinSimple, Bio-Techne, Minneapolis, MN). For glycoproteins samples, the gel was also imaged with traditional methods such as silver staining or trichloroethanol (TCE) staining.
For sLe^x synthesis, G0 was first converted to G2 by B4GalT1, then converted to A2[3] by ST3Gal4, and finally converted to A2[3]F2 (carrier of sLe^x) by FUT7 (FIG. 21A). During these steps, different amounts of enzymes, and multiple reaction times were applied to reveal the intermediate products.
Intermediate products are signs for the progress of each enzymatic step.

[3] = 0.2 μg enzyme, 30 μL, 37° C., 30 minutes
[4] = 0.2 μg enzyme, 30 μL, 37° C., 30 minutes, listed as AF
[5] = 5 μg asialofetuin, 0.2 μg enzyme, 30 μL, 37° C., 30 minutes
[6] = 5 μg asialofetuin, 0.2 μg enzyme, 30 μL, FIG. 4

With “MUC1: recombinant mucin from R&D Systems, contains O-glycans [reference compound]” the “Lower limit of detection of acceptor protein labeled by ST3Gal1” value (shortened to “Lower limit of detection … by ST3Gal1”) (ST3Gal1; [3]) was “around 0.012 μg”.

In the case of “asialofetuin: desialylated fetal bovine fetuin, model glycoprotein from Sigma-Aldrich [reference compound]”, the “Lower limit of detection … by ST3Gal1” value (ST3Gal1; [3]) is reported as 0.37 µg, the “Lower limit of detection … by ST3Gal1” value (ST3Gal1; [4]) is reported as “lower than 0.37 μg” and the “Lower limit of detection of acceptor protein labeled by ST6Gal1” value (ST6Gal1; [3]) is reported as 0.37 µg. For the same molecule, the “Lower limit of detection of acceptor protein labeled by ST6Gal1” value (ST6Gal1; [4]) was “lower than 0.37 μg”.

For “cytidine monophosphate activated Cy5-conjugated sialic acid [CMP-Cy5-SA]”, the “Donor amount at which maximal labeling by ST3Gal1 was achieved” value (ST3Gal1; [5]) was 37.0 pmol, the “Donor amount at which visible labeling on asialofetuin by ST3Gal1 was observed” value (ST3Gal1; [5]) was 4.11 pmol and the “Donor concentration for maximal labeling of asialofetuin by ST3Gal1” value (ST3Gal1; [6]) was 1.2 µM. The Donor concentration needed for maximal labeling of asialofetuin by ST3Gal1 (ST3Gal1; FIG. 4) was 1.21 µM, the “Donor amount at which maximal labeling by ST6Gal1 was achieved” value (ST6Gal1; [5]) was 37.0 pmol and the “Donor amount at which visible labeling on asialofetuin by ST6Gal1 was observed” value (ST6Gal1; [5]) was 1.37 pmol. For the same molecule, the “Donor concentration for maximal labeling of asialofetuin by ST6Gal1” value (ST6Gal1; [6]) was 1.2 µM and the Donor concentration needed for maximal labeling of asialofetuin by ST6Gal1 (ST6Gal1; FIG. 4) was 1.21 µM.

B1: α-2,3-sialyltransferase 2 (protein, UniProt Q16842 1-350, looked up)
CMP-N-acetylneuraminate-beta-g …: MKCSLRVWFLSVAFLLVFIMSLLFTYSHHSMATLPYLDSGALDGTHRVKLVPGYAGLQRLSKERLSGKSCACRRCMGDAGASDWFDSHFDGNISPVWTRENMDLPPDVQRWWMMLQPQFKSHNTNEVLEKLFQIVPGENPYRFRDPHQCRRCAVVGNSGNLRGSGYGQDVDGHNFIMRMNQAPTVGFEQDVGSRTTHHFMYPESAKNLPANVSFVLVPFKVLDLLWIASALSTGQIRFTYAPVKSFLRVDKEKVQIYNPAFFKYIHDRWTEHHGRYPSTGMLVLFFALHVCDEVNVYGFGADSRGNWHHYWENNRYAGEFRKTGVHDADFEAHIIDMLAKASKIEVYRGN
notes: recombinant human sialyltransferase, Core-1 O-glycan specific
For B1, the “Which of fetuin and asialofetuin the sialyltransferase labeled” value [1] was “primarily labeled asialofetuin, but also weakly labeled fetuin”.

B2: α-N-acetylgalactosaminide α-2,6-sialyltransferase 2 (protein, UniProt Q9UJ37 1-374, looked up)
Alpha-N-acetylgalactosaminide …: MGLPRGSFFWLLLLLTAACSGLLFALYFSAVQRYPGPAAGARDTTSFEAFFQSKASNSWTGKGQACRHLLHLAIQRHPHFRGLFNLSIPVLLWGDLFTPALWDRLSQHKAPYGWRGLSHQVIASTLSLLNGSESAKLFAPPRDTPPKCIRCAVVGNGGILNGSRQGPNIDAHDYVFRLNGAVIKGFERDVGTKTSFYGFTVNTMKNSLVSYWNLGFTSVPQGQDLQYIFIPSDIRDYVMLRSAILGVPVPEGLDKGDRPHAYFGPEASASKFKLLHPDFISYLTERFLKSKLINTHFGDLYMPSTGALMLLTALHTCDQVSAYGFITSNYWKFSDHYFERKMKPLIFYANHDLSLEAALWRDLHKAGILQLYQR
notes: sialyltransferase, O-GalNAc specific
In the case of B2, the “Which of fetuin and asialofetuin the sialyltransferase labeled” value [1] is reported as “labeled both fetuin and asialofetuin”.

B3: α-N-acetylgalactosaminide α-2,6-sialyltransferase 1 (protein, UniProt Q9NSC7 1-600, looked up)
Alpha-N-acetylgalactosaminide …: MRSCLWRCRHLSQGVQWSLLLAVLVFFLFALPSFIKEPQTKPSRHQRTENIKERSLQSLAKPKSQAPTRARRTTIYAEPVPENNALNTQTQPKAHTTGDRGKEANQAPPEEQDKVPHTAQRAAWKSPEKEKTMVNTLSPRGQDAGMASGRTEAQSWKSQDTKTTQGNGGQTRKLTASRTVSEKHQGKAATTAKTLIPKSQHRMLAPTGAVSTRTRQKGVTTAVIPPKEKKPQATPPPAPFQSPTTQRNQRLKAANFKSEPRWDFEEKYSFEIGGLQTTCPDSVKIKASKSLWLQKLFLPNLTLFLDSRHFNQSEWDRLEHFAPPFGFMELNYSLVQKVVTRFPPVPQQQLLLASLPAGSLRCITCAVVGNGGILNNSHMGQEIDSHDYVFRLSGALIKGYEQDVGTRTSFYGFTAFSLTQSLLILGNRGFKNVPLGKDVRYLHFLEGTRDYEWLEALLMNQTVMSKNLFWFRHRPQEAFREALHMDRYLLLHPDFLRYMKNRFLRSKTLDGAHWRIYRPTTGALLLLTALQLCDQVSAYGFITEGHERFSDHYYDTSWKRLIFYINHDFKLEREVWKRLHDEGIIRLYQRPGPGTAKAKN
notes: recombinant human sialyltransferase, O-GalNAc specific
For B3, the “Which of fetuin and asialofetuin the sialyltransferase labeled” value [1] was “labeled both fetuin and asialofetuin”.

B4: α-N-acetylgalactosaminide α-2,6-sialyltransferase 4 (protein, UniProt Q9H4F1 1-302, looked up)
Alpha-N-acetyl-neuraminyl-2,3- …: MKAPGRLVLIILCSVVFSAVYILLCCWAGLPLCLATCLDHHFPTGSRPTVPGPLHFSGYSSVPDGKPLVREPCRSCAVVSSSGQMLGSGLGAEIDSAECVFRMNQAPTVGFEADVGQRSTLRVVSHTSVPLLLRNYSHYFQKARDTLYMVWGQGRHMDRVLGGRTYRTLLQLTRMYPGLQVYTFTERMMAYCDQIFQDETGKNRRQSGSFLSTGWFTMILALELCEEIVVYGMVSDSYCREKSHPSVPYHYFEKGRLDECQMYLAHEQAPRSAHRFITEKAVFSRWAKKRPIVFAHPSWRTE
notes: as for B3
For B4, the “Which of fetuin and asialofetuin the sialyltransferase labeled” value [1] was “only labeled fetuin”.

B5: α-2,3-sialyltransferase 4 (protein, UniProt Q11206 1-333, looked up)
CMP-N-acetylneuraminate-beta-g …: MVSKSRWKLLAMLALVLVVMVWYSISREDRYIELFYFPIPEKKEPCLQGEAESKASKLFGNYSRDQPIFLRLEDYFWVKTPSAYELPYGTKGSEDLLLRVLAITSSSIPKNIQSLRCRRCVVVGNGHRLRNSSLGDAINKYDVVIRLNNAPVAGYEGDVGSKTTMRLFYPESAHFDPKVENNPDTLLVLVAFKAMDFHWIETILSDKKRVRKGFWKQPPLIWDVNPKQIRILNPFFMEIAADKLLSLPMQQPRKIKQKPTTGLLAITLALHLCDLVHIAGFGYPDAYNKKQTIHYYEQITLKSMAGSGHNVSQEALAIKRMLEMGAIKNLTSF
notes: recombinant human sialyltransferase, N-glycan specific
With B5 the “Which of fetuin and asialofetuin the sialyltransferase labeled” value [1] was “only labeled asialofetuin”, the “Time for the complete conversion of G2 to A2[3]” value ([2]; FIG. 21B) was 5 h and the “Activity based on reaction completion” value ([2]; substrate G2, completed product A2[3]) was 0.0084 pmol/min/µg. It also gave a Relative activity ([2]; substrate G2, product A2[3], normalized to FUT6 on sLe^x synthesis) of 0.06.
